Data set [1] addresses Ubiquitin-AMC (Ub-AMC), P0CG48.
In data set [2] the target is all forms of lysine-linked (isopeptide-linked) diubiquitin.

Sequence of Ubiquitin-AMC (Ub-AMC), P0CG48 (P0CG48 whole entry, looked up): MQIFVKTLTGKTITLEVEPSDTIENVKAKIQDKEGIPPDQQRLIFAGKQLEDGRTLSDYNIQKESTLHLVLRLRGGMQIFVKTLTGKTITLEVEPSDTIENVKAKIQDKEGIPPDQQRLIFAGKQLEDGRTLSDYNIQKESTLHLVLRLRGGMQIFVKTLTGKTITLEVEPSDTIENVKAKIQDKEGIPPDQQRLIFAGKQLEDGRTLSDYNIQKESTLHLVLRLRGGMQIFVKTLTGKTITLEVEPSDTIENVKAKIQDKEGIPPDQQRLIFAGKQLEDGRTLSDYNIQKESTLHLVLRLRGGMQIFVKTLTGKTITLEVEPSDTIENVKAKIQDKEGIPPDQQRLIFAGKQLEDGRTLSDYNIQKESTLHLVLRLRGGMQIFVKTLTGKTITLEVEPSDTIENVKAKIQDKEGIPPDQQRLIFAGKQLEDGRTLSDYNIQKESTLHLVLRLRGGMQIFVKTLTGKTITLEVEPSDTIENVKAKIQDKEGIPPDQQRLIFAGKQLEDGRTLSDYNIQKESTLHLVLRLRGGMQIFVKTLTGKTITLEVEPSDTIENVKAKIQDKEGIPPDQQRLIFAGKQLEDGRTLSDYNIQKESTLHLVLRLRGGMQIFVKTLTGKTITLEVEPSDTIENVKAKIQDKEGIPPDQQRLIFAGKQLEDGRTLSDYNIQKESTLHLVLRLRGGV
Sequence of Nedd8-AMC, Q15843 (Q15843 whole entry, looked up): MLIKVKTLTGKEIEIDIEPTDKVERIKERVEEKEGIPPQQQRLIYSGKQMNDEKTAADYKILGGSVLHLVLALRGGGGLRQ
Sequence of ISG15-AMC, P05161 (P05161 2-157): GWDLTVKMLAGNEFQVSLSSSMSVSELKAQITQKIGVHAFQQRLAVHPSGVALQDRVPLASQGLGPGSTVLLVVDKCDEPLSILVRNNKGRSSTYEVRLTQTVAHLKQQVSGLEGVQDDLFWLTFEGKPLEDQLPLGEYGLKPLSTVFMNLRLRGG
Sequence of SUMO2-AMC, P61956 (P61956 1-93): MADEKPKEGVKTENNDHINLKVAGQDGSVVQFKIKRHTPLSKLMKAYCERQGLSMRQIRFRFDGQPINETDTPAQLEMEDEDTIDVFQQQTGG
Sequence of SUMO1-AMC, P63165 (P63165 2-97): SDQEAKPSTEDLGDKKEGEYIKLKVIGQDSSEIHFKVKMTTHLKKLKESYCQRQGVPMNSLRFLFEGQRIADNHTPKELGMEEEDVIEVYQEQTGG

B1: CidB(762-1143) (protein)
chain: SSRPGGLVGPESVIDENPPEGLLSDQTRENFRRFYEEKAPGQNSIFLLDIGDNLHVPFSYLQGTRAQVIETLKSRIRGGGTPTAQGILQQINAILRRNNAREIEDVHDLLALDFATDNQNYRYWLQTHDMFFAARQYTFLDNQSHSTNDHYGFEITSVGVDGNQNDPTGRGLLSSHITNFKQKVDSGEKDRLIAIINVGNRHWVTLVIVHQNGNYYGYYADSLGPDSGIDNNIRGALRECDINDDNVHNISVHQQTDGHNCGIWVYENARDINQAIDQALQGNNNFGEKGEGIIGYIRGLLSAGIGNDTRQPRRNEQYFEDRRRDISQLLQNDPNLPSRRSDLIQAHPGIQHEIDPLLLQFLGLQYPQRGGGGALQLGGERV
Take B1: the “UBL-AMC hydrolysis (AMC release)” value in the data set with SUMO1-AMC, P63165 is “Despite testing human ISG15-AMC and SUMO1/2-AMC with several concentrations of CidB (up to 400 nM), we failed to detect any AMC release”; with ISG15-AMC, P05161, “Despite testing human ISG15-AMC and SUMO1/2-AMC with several concentrations of CidB (up to 400 nM), we failed to detect any AMC release”; with SUMO2-AMC, P61956 it was “Despite testing human ISG15-AMC and SUMO1/2-AMC with several concentrations of CidB (up to 400 nM), we failed to detect any AMC release”. The “catalytic efficiency for Ub-AMC relative to Nedd8-AMC” value in data set [1] is on record as “CidB^wPip catalytic efficiency for hydrolyzing Ub-AMC is 11-fold greater than for Nedd8-AMC”. The “kcat/KM for Ub-AMC hydrolysis” value in data set [1] is “the kcat/KM for Ub-AMC hydrolysis was 7.59 µM^-1 min^-1”. In addition, the “kcat/KM for Nedd8-AMC” value with Nedd8-AMC, Q15843 is “its kcat/KM for Nedd8-AMC was determined to be 0.69 µM^-1 min^-1”.

B2: CidB^wMel (797-1128) (protein)
chain: QNSIFLLDIDDNLHVPFSYLQGTRAQAIETLRSRIRGGGTSTAQGILQQINTILRRNNAREIEDVHNLLALDFATENQNFRYWLQTHDMFFAARQYTFHDDRSNPTNDRHDFAITSVGVDGNQNDPTGRDLLSSNIDNFKQKVDSGEKDRLTAIINVGNRHWVTLVIVHQNGNYYGYYADSLGPDSRIDNNIRGALRECDISDDNVHDVSVHQQTDGHNCGIWAYENARDINQAIDQALQGNSNFGEKGEGIIGYIRGLLSAGIGNDTRQPQRNEQYFRNRRRNISQLFQNDSLSSPRGRLIQGRPGIQHEIDPLLLQFLELQYPQRGGGGA
Take B2: in data set [1], the “Ub-AMC hydrolysis (AMC release)” value is “both CidB and CidB^wMel cleaved Ub-AMC, and to a much lesser extent, the UBL Nedd8-AMC”. Moreover, the “Nedd8-AMC hydrolysis (AMC release)” value with Nedd8-AMC, Q15843 is “both CidB and CidB^wMel cleaved Ub-AMC, and to a much lesser extent, the UBL Nedd8-AMC”.

B3: CidB (CidB^wPip), full length (protein)
chain: MSNGDGLIRSLVDGDLEGFRQGFESFLDQCPSFLYHVSAGRFLPVFFFSMFSTAHDANILNANERVYFRFDNHGVNPRNGENRNTANLKVAVYRDGQQVVRCYSISDRPNSDGLRFSTRERNALVQEIRRQNPNLREEDLNFEQYKVCMHGKGKSQGEAIATVFEVIREKDRQGRDKFAKYSASEVHFLRQLFRNHRLTIKEIEGRQLNQNQLRQLGRSVNFTRVEPGQQRIDNFMEMLASNQRQDVRDSLRGDILEYVTDTYNNYRAQIENNIEGRSQKFESHGFLLGFLANFSHRYTIGVDLDLSPRNSHVAFLVRHQVERENIPIVINLATRAPPYIALNRARSHAERLHVFSFIPIHTESRNTVCVGLNFNLNLDPFSVDTVGLQQDRFPLVQRLFECLENEGIRENIRDFLLHHLPAEIPRNAENYDRIFDCITGFAFGNSAFDRHPLELEEEDEAPITKYIFRHGDEGLRCLTMVFHAEGSDIVILHIRAHDAQQQGAINLQTLNVNGNDVHVWEVSCTLNNQLELDIDLPNDLGLYHDYQNNNANNFLAGDLVQVPNTENVHNTLNQVVNDGWKNIAQHRGLFQEISGALMPLVDTINVNSEDKFRSILHGTFYASDNPYKVLAMYKVGQTYSLKRGQEEEGERVILTRITEQRLDLLLLRQPRENDLDTHPIGYVLRLANNAEEVGQQQNDARQEIGRLKKQHRGFIPITSGNEVVLFPIVFNRDAHEAGNLILFPEGIGREEHVHRLDRHVRSSRPGGLVGPESVIDENPPEGLLSDQTRENFRRFYEEKAPGQNSIFLLDIGDNLHVPFSYLQGTRAQVIETLKSRIRGGGTPTAQGILQQINAILRRNNAREIEDVHDLLALDFATDNQNYRYWLQTHDMFFAARQYTFLDNQSHSTNDHYGFEITSVGVDGNQNDPTGRGLLSSHITNFKQKVDSGEKDRLIAIINVGNRHWVTLVIVHQNGNYYGYYADSLGPDSGIDNNIRGALRECDINDDNVHNISVHQQTDGHNCGIWVYENARDINQAIDQALQGNNNFGEKGEGIIGYIRGLLSAGIGNDTRQPRRNEQYFEDRRRDISQLLQNDPNLPSRRSDLIQAHPGIQHEIDPLLLQFLGLQYPQRGGGGALQLGGERVISIDFGNPQSALDKIDGVSRVYNHSNSRGSR
With B3, in data set [2], the “diubiquitin cleavage (panel digest)” value is “Full length CidB cleaves all forms of lysine-linked (isopeptide-linked) diubiquitin, albeit with variable efficiency”.

The record behind these values is US20240164355.
